Test results taken from patent US20240400657A1 (MorphoSys, published 2024).
Numbering of substitutions follows the chain as printed.

Key:
[1] = target: T1, full length human C5aR stably expressed on CHO Flp-In cells (human, UniProt P21730 1-350); test: FACS on Flp-In CHO cells, IgG titration
T1 construct: also called human C5aR expressed on CHO cells
T1 sequence: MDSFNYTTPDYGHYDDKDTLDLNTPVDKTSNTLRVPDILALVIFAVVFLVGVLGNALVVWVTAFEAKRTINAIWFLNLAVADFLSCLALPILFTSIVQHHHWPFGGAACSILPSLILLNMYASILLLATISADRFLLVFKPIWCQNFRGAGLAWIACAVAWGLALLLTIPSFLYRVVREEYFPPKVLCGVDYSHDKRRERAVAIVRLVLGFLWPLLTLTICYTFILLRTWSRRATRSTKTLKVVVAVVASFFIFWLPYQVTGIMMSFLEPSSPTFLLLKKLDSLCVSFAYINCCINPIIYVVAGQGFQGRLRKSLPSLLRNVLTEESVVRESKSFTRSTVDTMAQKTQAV
Experimental: (§1) The C5aR-CHO Flp-In™ cell lines were blocked and IgGs were added either in serial dilutions or at a single (high) concentration of 300 nM. For detection of IgG binding, an R-phycoerythrin (R-PE) conjugated anti-human IgG (Fc-gamma fragment specific)2 antibody was added and fluorescence was measured using the FACS Array or Novocyte device.

[2] = target: T2, full length cynomolgus C5aR stably expressed on CHO Flp-In cells (cynomolgus monkey (Macaca fascicularis)); test: FACS on Flp-In CHO cells, IgG titration
T2 chain: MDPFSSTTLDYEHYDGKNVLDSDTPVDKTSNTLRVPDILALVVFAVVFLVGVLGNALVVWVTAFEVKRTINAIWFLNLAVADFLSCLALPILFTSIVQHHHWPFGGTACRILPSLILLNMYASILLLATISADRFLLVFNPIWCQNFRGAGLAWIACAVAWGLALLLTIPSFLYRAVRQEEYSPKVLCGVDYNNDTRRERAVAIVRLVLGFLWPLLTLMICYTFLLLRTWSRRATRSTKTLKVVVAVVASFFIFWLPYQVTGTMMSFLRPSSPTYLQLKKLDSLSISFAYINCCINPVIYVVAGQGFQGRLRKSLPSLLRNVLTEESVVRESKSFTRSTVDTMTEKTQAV
Experimental: as §1

Fc (h) = target: T3, Fc (h); test: Protein Panel Profiling (3P), MSD ECL, coated antigen, IgG 100 nM
T3 construct: '(h)' on the sheet read as human
Experimental: (§2) 32 different proteins and controls were coated on two 384-well MSD standard plates at a concentration of 1.0 μg/mL at 4° C. over night. The coating solution was discarded and plates were blocked with 50 μL 3% (w/v) BSA in PBS for one hour at RT on a microtiter plate shaker (˜500 rpm) followed by three washing steps with 50 μL washing buffer (PBS with 0.05% (v/v) Tween 20). IgG samples were diluted to 100 nM and 10 nM in assay buffer (PBS with 0.5% (w/v) BSA, 0.05% (v/v) Tween 20). As controls, isotype control antibody MOR03207 (IgG1f_AEASS) and assay buffer were used. Samples and controls were added at 30 μL/well and incubated for three hours at RT on a microtiter plate shaker. The plates were washed three times and 30 μL detection antibody (ECL-labeled anti-human Fab) were added per well and incubated for one hour on a microtiter plate shaker (˜500 rpm). After washing the MSD plate and adding 35 μL/well MSD Read Buffer T with surfactant, electro-chemiluminescence signals were detected using a SECTOR® Imager S600 instrument (Meso Scale Diagnostics).
(§3) For evaluation, binding signals of the antibody sample to a certain protein were divided by the respective binding signals of the reference antibody MOR03207 resulting in a binding ratio (BR). The cumulative binding ratio (CBR) of all proteins except the controls (25 in total) was then calculated: CBR up to 150 indicates an IgG without detectable unspecific binding. Values above 150 indicates an IgG with increased unspecific binding compared to the reference antibody MOR03207.

Pepsinogen = test: as above
Experimental: as §2, §3

Myoglobin = test: as above
Experimental: as §2, §3

Ovalbumin = test: as above
Experimental: as §2, §3

RNase B = test: as above
Experimental: as §2, §3

Lysozyme = test: as above
Experimental: as §2, §3

anti-human Fc = target: T4, anti-human Fc; test: as above
T4 construct: control of the 3P panel; it captures human IgG as such, so a ratio of 1 means a signal equal to that of MOR03207
Experimental: as §2, §3

Hemoglobin (h) = target: T5, Hemoglobin (h) (human); test: as above
T5 construct: '(h)' on the sheet read as human
Experimental: as §2, §3

Antitrypsin = test: as above
Experimental: as §2, §3

[3] = target: T6, Cell surface rec. 2_Fc (h); test: as above
T6 construct: identity not disclosed
Experimental: as §2, §3

[4] = target: T7, human C5aR_NT-bio peptide (human, biotin tag (position not given)); test: as above
T7 construct: Chemically synthesized linear peptide (Genscript); also called human C5aR N-terminal peptide; human C5aR peptide
T7 peptide: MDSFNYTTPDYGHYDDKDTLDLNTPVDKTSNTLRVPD

[5] = target: T8, Mouse FcRn p51 [1-297]/AviHis/p14 biotinylated (mouse, UniProt Q61559 22-298; P01887 21-119, biotinylated in vitro with BirA (Avi tag)); test: BLI (Octet HTX), biotinylated FcRn on SA sensors, IgG titrated, steady state fit, apparent KD, pH 7.2
T8 construct: Heterodimer; UniProt Q61559 (p51); also called Murine FcRn
T8 chain 1: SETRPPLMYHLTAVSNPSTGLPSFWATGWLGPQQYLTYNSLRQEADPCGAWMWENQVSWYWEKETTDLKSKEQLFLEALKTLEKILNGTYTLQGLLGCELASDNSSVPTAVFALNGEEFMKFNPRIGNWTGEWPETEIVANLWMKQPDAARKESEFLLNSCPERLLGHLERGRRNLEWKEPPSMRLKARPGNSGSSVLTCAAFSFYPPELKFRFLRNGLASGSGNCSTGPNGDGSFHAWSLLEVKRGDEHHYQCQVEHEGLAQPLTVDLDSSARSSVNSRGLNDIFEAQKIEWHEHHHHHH
T8 chain 2: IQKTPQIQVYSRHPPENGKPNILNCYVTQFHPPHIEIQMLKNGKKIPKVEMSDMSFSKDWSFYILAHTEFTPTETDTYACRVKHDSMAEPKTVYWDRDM
Text: (§4) 0.5 nm of biotinylated human, cynomolgus, mouse and rat FcRn were captured on streptavidin (SA) sensors (FortéBIO, Pall Life Sciences). […] All sensorgrams were fitted using Data Analysis Software 10.0 (FortéBIO, Pall Life Sciences) to determine the apparent affinity and the data was fitted with a steady state model.

[6] = target: T9, Rat FcRn p51 [1-298]/AviHis/p14 biotinylated (rat, UniProt P13599 23-299; P07151 21-119, biotinylated in vitro with BirA (Avi tag)); test: as above
T9 construct: Heterodimer; UniProt P13599 (p51)
T9 sequence 1: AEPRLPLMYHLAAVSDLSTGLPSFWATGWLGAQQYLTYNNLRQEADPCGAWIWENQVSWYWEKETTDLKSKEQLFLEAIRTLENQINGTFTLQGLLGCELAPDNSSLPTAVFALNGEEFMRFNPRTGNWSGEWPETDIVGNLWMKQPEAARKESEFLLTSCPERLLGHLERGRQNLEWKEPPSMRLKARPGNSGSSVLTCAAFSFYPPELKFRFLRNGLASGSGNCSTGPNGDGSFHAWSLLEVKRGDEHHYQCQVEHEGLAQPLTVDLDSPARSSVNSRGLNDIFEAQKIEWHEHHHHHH
T9 sequence 2: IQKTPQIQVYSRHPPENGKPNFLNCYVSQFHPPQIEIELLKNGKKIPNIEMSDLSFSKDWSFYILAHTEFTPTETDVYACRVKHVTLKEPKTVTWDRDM
Text: as §4

Chain of RNase B (P61823 27-150): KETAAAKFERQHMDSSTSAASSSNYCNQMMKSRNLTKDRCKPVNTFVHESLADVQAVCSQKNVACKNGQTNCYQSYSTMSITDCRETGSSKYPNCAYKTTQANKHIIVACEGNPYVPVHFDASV
Chain of Lysozyme (P00698 19-147): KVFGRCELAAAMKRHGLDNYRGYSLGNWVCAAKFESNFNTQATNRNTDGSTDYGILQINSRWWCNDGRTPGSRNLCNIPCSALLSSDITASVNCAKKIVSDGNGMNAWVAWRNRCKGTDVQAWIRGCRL
Chain of Ovalbumin (P01012 2-386): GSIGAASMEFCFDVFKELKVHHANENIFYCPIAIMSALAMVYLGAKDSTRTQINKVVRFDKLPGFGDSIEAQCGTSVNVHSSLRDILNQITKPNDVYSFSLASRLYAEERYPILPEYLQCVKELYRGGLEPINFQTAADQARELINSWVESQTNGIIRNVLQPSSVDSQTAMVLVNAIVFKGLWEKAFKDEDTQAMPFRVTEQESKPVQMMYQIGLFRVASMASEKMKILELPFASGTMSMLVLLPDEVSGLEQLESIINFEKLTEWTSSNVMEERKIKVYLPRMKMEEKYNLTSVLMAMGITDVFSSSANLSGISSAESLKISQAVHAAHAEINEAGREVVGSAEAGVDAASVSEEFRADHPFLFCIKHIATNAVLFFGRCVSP
T5 sequence (P69905 2-142, chain 1 of 2): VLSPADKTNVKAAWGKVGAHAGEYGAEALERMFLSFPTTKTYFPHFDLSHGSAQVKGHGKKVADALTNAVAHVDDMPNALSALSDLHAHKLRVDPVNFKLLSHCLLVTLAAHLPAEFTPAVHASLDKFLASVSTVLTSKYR
T5 sequence (P68871 2-147, chain 2 of 2, further chain): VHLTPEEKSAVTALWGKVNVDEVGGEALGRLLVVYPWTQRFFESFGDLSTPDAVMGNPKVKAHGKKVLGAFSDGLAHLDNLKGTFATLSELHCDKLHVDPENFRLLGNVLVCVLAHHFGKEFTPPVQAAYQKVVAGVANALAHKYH

B1: MAB #2 (antibody, human IgG1, lambda)
heavy: EVQLVESGGGLVKPGGSLRLSCAASGFTFSSYAMHWVRQAPGKGLEWVGRIKSVAQGGTTDYAAHVKGRFTISRDDSKNTLYLQMNSLKTEDTAVYYCARVSHSTFDVWGQGTLVTVSSASTKGPSVFPLAPSSKSTSGGTAALGCLVKDYFPEPVTVSWNSGALTSGVHTFPAVLQSSGLYSLSSVVTVPSSSLGTQTYICNVNHKPSNTKVDKRVEPKSCDKTHTCPPCPAPEAEGAPSVFLFPPKPKDTLMISRTPEVTCVVVDVSHEDPEVKFNWYVDGVEVHNAKTKPREEQYNSTYRVVSVLTVLHQDWLNGKEYKCKVSNKALPSSIEKTISKAKGQPREPQVYTLPPSREEMTKNQVSLTCLVKGFYPSDIAVEWESNGQPENNYKTTPPVLDSDGSFFLYSKLTVDKSRWQQGNVFSCSVMHEALHNHYTQKSLSLSPGK
light: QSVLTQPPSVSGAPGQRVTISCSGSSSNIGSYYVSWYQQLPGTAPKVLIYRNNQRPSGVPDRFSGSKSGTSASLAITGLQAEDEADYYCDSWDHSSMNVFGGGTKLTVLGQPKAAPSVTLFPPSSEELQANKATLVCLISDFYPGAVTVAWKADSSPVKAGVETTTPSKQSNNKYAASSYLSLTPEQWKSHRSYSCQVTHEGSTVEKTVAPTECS
notes: lambda 1 light chain
[1]
  EC50: 1.2 nM
[2]
  EC50: 1.4 nM
Fc (h)
  binding ratio (signal / signal of MOR03207): 3
Pepsinogen
  binding ratio (signal / signal of MOR03207): 5
Myoglobin
  binding ratio (signal / signal of MOR03207): 2
Ovalbumin
  binding ratio (signal / signal of MOR03207): 4
RNase B
  binding ratio (signal / signal of MOR03207): 2
Lysozyme
  binding ratio (signal / signal of MOR03207): 2
anti-human Fc
  binding ratio (signal / signal of MOR03207): 1
Hemoglobin (h)
  binding ratio (signal / signal of MOR03207): 2
Antitrypsin
  binding ratio (signal / signal of MOR03207): 2
[3]
  binding ratio (signal / signal of MOR03207): 2
[4]
  binding ratio (signal / signal of MOR03207): 49
[5]
  Kd: 130 nM
[6]
  Kd: 300 nM

B2: MAB #1 (antibody, human IgG1, lambda)
heavy: B1 heavy with V54K, H103F
light: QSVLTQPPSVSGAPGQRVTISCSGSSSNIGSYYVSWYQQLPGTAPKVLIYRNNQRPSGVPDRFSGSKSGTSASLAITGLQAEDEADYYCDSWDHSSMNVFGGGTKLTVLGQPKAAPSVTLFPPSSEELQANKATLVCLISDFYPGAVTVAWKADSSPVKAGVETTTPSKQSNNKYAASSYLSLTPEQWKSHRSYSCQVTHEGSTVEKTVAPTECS
notes: lambda 1 light chain, VH3-15 framework
[1]
  EC50: 1.7 nM
[2]
  EC50: 1.1 nM
Fc (h)
  binding ratio (signal / signal of MOR03207): 2
Pepsinogen
  binding ratio (signal / signal of MOR03207): 4
Myoglobin
  binding ratio (signal / signal of MOR03207): 2
Ovalbumin
  binding ratio (signal / signal of MOR03207): 2
RNase B
  binding ratio (signal / signal of MOR03207): 2
Lysozyme
  binding ratio (signal / signal of MOR03207): 2
anti-human Fc
  binding ratio (signal / signal of MOR03207): 1
Hemoglobin (h)
  binding ratio (signal / signal of MOR03207): 2
Antitrypsin
  binding ratio (signal / signal of MOR03207): 2
[3]
  binding ratio (signal / signal of MOR03207): 2
[4]
  binding ratio (signal / signal of MOR03207): 84
[5]
  Kd: 39 nM
[6]
  Kd: 110 nM
